Laboratory results taken from paper PMC5855864.

Key:
Experiment in all cases: SPR
Protein A, recombinant = Protein A, recombinant (UniProt P38507); conditions: aptamer immobilized; 100 mM NaCl, 20 mM Tris-HCl pH 7.6, 10 mM MgCl2, 5 mM KCl, 1 mM CaCl2, 0.005% surfactant P20, 21 °C (SPR Biacore X100)
[1] = target: Protein A, native (Staphylococcus aureus) (UniProt P38507); conditions: aptamer immobilized; 100 mM NaCl, 20 mM Tris-HCl pH 7.6, 10 mM MgCl2, 5 mM KCl, 1 mM CaCl2, 0.005% surfactant P20, 21 °C (SPR Biacore X100)
[2] = target: Protein A, native, biotinylated (Staphylococcus aureus) (UniProt P38507); conditions: protein immobilized, aptamer as analyte; 100 mM NaCl, 20 mM Tris-HCl pH 7.6, 10 mM MgCl2, 5 mM KCl, 1 mM CaCl2, 0.005% surfactant P20, 21 °C (SPR Biacore X100)

| Sequence | Kd (Protein A, recombinant) [nM] | Kd [1] [nM] | Kd [2] [nM] |
| --- | --- | --- | --- |
| ATACCAGCTTATTCAATTGGGCACCACGGGAGTCGGCCACATTTGGAGTTGTTTTTGCACAATCGTAATCAGTTAG [PA#14/89 (3'-biotin)] | 2660 | 467 | – |
| ATACCAGCTTATTCAATTAGCAACATGAGGGGGATGGAGGGGGTGGGTTCTCTCGGCTACAATCGTAATCAGTTAG [PA-C4] | 222 | – | – |
| ATACCAGCTTATTCAATTAGCAACATGAGGGGGATAGAGGGGGTGGGTTCTCTCGGCTACAATCGTAATCAGTTAG [PA#2/8 (3'-biotin)] | 92 | 20 | – |
| ATACCAGCTTATTCAATTGCGCACCACGGGAGTTGGCCACATTTGGAGTTGTTTTTGCACAATCGTAATCAGTTAG [PA-C10 (3'-biotin)] | 2730 | 588 | – |
| ATACCAGCTTATTCAATTAGGCCAGATGAGGGGTGCCCATGGCGGGGTGGCTGCTCCAACAATCGTAATCAGTTAG [PA-C8 (3'-biotin)] | 443 | 99 | – |
| ATACCAGCTTATTCAATTAGCAACATGAGGGGGGATAGAGGGGGTGGGTTCTCTCGGCTACAATCGTAATCAGTTAG [PA-C7] | 1610 | – | – |
| ATACCAGCTTATTCAATTAGCAACATGAGGGGGATAGAGGGGGTGGGTTCTCTCGGCTACAATCGTAATCAGTTAG [PA#2/8 (unmodified)] | – | – | 3730 |
